What all share (assay): yeast 2-hybrid
Assay [1] addresses T1, Apc10 (yeast, UniProt P53068 1-250, limits assumed).
T1 construct: Expressed as a Y2H bait fusion; also called yeast Apc10 APC subunit; Apc10 bait
T1 sequence (looked up): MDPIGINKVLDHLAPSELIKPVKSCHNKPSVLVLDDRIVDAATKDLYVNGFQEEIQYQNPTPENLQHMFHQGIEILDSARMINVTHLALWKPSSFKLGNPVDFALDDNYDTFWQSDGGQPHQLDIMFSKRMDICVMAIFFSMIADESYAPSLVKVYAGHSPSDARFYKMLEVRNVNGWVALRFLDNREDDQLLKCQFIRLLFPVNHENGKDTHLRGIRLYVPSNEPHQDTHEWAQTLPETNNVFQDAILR

For assay [2], the target named is T2, Apc5 (yeast, UniProt Q08683 1-685, limits assumed).
T2 construct: Expressed as a Y2H bait fusion; also called Apc5 bait
T2 sequence (looked up): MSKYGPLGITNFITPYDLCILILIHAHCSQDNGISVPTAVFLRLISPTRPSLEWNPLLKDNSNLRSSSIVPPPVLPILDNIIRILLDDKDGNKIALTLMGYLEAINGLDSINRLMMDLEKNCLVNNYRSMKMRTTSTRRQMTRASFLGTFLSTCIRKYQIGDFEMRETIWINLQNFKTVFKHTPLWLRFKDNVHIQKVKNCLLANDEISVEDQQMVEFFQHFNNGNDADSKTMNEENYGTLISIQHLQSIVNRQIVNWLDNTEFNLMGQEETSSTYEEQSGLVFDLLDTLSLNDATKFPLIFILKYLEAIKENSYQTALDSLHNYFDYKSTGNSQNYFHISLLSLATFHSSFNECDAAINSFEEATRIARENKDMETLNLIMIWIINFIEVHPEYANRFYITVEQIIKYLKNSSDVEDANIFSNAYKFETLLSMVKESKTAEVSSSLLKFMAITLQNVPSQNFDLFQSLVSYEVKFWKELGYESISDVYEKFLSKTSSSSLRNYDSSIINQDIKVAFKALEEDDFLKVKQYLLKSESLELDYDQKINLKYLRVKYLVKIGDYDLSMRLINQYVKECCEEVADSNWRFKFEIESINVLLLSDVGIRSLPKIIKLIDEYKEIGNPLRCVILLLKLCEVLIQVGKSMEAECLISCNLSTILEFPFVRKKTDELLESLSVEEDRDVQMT

In assay [3] the target is T1, Apc10. The source holds these as a separate data set.

Like-named read-outs stand apart in the source and are kept apart here.

B1: peptide 50-1 (peptide)
peptide: RRCLSIRTENLAWEGKFLRV
modifications: Displayed in the assay as the variable loop of a TrxA scaffold fused to a Y2H prey domain; carrier not written.
notes: not shown: TrxA (thioredoxin) scaffold halves flanking the loop and the Y2H prey fusion domain
Take B1: the binding result in assay [1] was “binds”.

B2: peptide 1-8 (peptide)
peptide: GRMLMTYLMYFMVLWVPRPWGPPL
modifications: Displayed in the assay as the variable loop of a TrxA scaffold fused to a Y2H prey domain; carrier not written.
notes: as for B1
Turning to B2, the binding result in assay [1] is recorded as “binds”.

B3: peptide 24-1 (peptide)
peptide: SKWTWRMCMSWTVDRFAPVPWP
modifications: Displayed in the assay as the variable loop of a TrxA scaffold fused to a Y2H prey domain; carrier not written.
notes: as for B1
Regarding B3, the binding result in assay [2] is “binds”.

B4: peptide C2-4B (peptide)
peptide: RMPQWWQWMWV
modifications: Shown as the variable loop of the Trx scaffold on a Y2H prey vector. The letters do not carry this.
notes: also called 11-3; C2-4B aptamer; not shown: TrxA scaffold and Y2H fusion domain
Take B4: the binding result in assay [2] was “binds”.

B5: peptide C43-4 (peptide)
peptide: NGSSHNDLRVRRLTLISRLC
modifications: Shown in the assay as the variable loop of a Trx scaffold fused to a Y2H prey domain. The letters do not carry this.
notes: also called C43-4 aptamer; Htz1-like peptide; not shown: Thioredoxin (TrxA) scaffold flanking the loop and the Y2H prey fusion domain
As for B5, in assay [1], the binding result is on record as “binds”.

B6: peptide C43-4-3 (peptide, not shown: large carriers)
peptide: NGSSHNDARVRRLTLISRLC
modifications: Presumably shown in the Trx scaffold like its parent. The letters do not carry this.
notes: C43-4 with leucine 8 replaced by alanine; also called C43-L8A
In the case of B6, in assay [3], the binding result was “binds”.

For the origin of these results see patent publication US20200123558A1 (UNIVERSITY OF SASKATCHEWAN AND NATIONAL RESEARCH COUNCIL OF …, published 2020).
